Patent US20130336893A1 (Sanofi, published 2013)
Where no end group is shown, it is not given here. Side-chain parts run from the residue outwards. [ ]: non-standard residue; d: D form. The star is where a group is joined. Desaminohistidyl = O=C(CCc1c[nH]cn1)*; Palmitoyl = CCCCCCCCCCCCCCCC(=O)*; GABA = NCCCC(=O)O

B1: SEQ ID NO: (125) (peptide)
peptide: H[dS]QGTFTSDLSKQMESRRAQDFIEWLKSGGPSSGAPPPSK([GABA-Palmitoyl])-NH2
modifications: N-terminus assumed
SMILES: CCCCCCCCCCCCCCCC(=O)NCCCC(=O)NCCCC[C@H](NC(=O)[C@H](CO)NC(=O)[C@@H]1CCCN1C(=O)[C@@H]1CCCN1C(=O)[C@@H]1CCCN1C(=O)[C@H](C)NC(=O)CNC(=O)[C@H](CO)NC(=O)[C@H](CO)NC(=O)[C@@H]1CCCN1C(=O)CNC(=O)CNC(=O)[C@H](CO)NC(=O)[C@H](CCCCN)NC(=O)[C@H](CC(C)C)NC(=O)[C@H](Cc1c[nH]c2ccccc12)NC(=O)[C@H](CCC(=O)O)NC(=O)[C@@H](NC(=O)[C@H](Cc1ccccc1)NC(=O)[C@H](CC(=O)O)NC(=O)[C@H](CCC(N)=O)NC(=O)[C@H](C)NC(=O)[C@H](CCCNC(=N)N)NC(=O)[C@H](CCCNC(=N)N)NC(=O)[C@H](CO)NC(=O)[C@H](CCC(=O)O)NC(=O)[C@H](CCSC)NC(=O)[C@H](CCC(N)=O)NC(=O)[C@H](CCCCN)NC(=O)[C@H](CO)NC(=O)[C@H](CC(C)C)NC(=O)[C@H](CC(=O)O)NC(=O)[C@H](CO)NC(=O)[C@@H](NC(=O)[C@H](Cc1ccccc1)NC(=O)[C@@H](NC(=O)CNC(=O)[C@H](CCC(N)=O)NC(=O)[C@@H](CO)NC(=O)[C@@H](N)Cc1c[nH]cn1)[C@@H](C)O)[C@@H](C)O)[C@@H](C)CC)C(N)=O
B2: SEQ ID NO: (24) (peptide)
peptide: [Desaminohistidyl]SQGTFTSDLSKQMDSRRAQDFIEWLKNGGPSSGAPPPS-NH2
SMILES: CC[C@H](C)[C@H](NC(=O)[C@H](Cc1ccccc1)NC(=O)[C@H](CC(=O)O)NC(=O)[C@H](CCC(N)=O)NC(=O)[C@H](C)NC(=O)[C@H](CCCNC(=N)N)NC(=O)[C@H](CCCNC(=N)N)NC(=O)[C@H](CO)NC(=O)[C@H](CC(=O)O)NC(=O)[C@H](CCSC)NC(=O)[C@H](CCC(N)=O)NC(=O)[C@H](CCCCN)NC(=O)[C@H](CO)NC(=O)[C@H](CC(C)C)NC(=O)[C@H](CC(=O)O)NC(=O)[C@H](CO)NC(=O)[C@@H](NC(=O)[C@H](Cc1ccccc1)NC(=O)[C@@H](NC(=O)CNC(=O)[C@H](CCC(N)=O)NC(=O)[C@H](CO)NC(=O)CCc1c[nH]cn1)[C@@H](C)O)[C@@H](C)O)C(=O)N[C@@H](CCC(=O)O)C(=O)N[C@@H](Cc1c[nH]c2ccccc12)C(=O)N[C@@H](CC(C)C)C(=O)N[C@@H](CCCCN)C(=O)N[C@@H](CC(N)=O)C(=O)NCC(=O)NCC(=O)N1CCC[C@H]1C(=O)N[C@@H](CO)C(=O)N[C@@H](CO)C(=O)NCC(=O)N[C@@H](C)C(=O)N1CCC[C@H]1C(=O)N1CCC[C@H]1C(=O)N1CCC[C@H]1C(=O)N[C@@H](CO)C(N)=O

Molecular target: human glucagon receptor (human, UniProt P47871 26-477)
Experiment: cell-based or functional assay

Sequence of human glucagon receptor (P47871 26-477): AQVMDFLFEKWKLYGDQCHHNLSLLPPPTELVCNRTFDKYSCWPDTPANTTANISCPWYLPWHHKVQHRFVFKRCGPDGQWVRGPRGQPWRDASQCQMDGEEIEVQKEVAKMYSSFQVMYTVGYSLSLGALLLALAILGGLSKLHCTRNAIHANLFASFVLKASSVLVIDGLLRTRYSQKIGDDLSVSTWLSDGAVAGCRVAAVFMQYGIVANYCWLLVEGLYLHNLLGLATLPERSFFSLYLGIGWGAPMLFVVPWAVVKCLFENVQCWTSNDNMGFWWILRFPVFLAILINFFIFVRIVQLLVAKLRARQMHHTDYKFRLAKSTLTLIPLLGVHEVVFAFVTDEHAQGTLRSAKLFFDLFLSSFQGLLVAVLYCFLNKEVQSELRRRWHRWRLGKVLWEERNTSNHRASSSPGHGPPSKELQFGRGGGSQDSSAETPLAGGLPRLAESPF

| Binder | EC50 hGlucagonR (cAMP formation) |
| --- | --- |
| HSQGTFTSDLSKQMDSRAAQLFIEWLKNGGPSSGAPPPS-NH2 [SEQ ID NO: (22)] | 0.127 nM |
| HSQGTFTSDLSKQMDSRRAQDFIEWLKNGGPSSGAPPPK(Palmitoyl)-NH2 [SEQ ID NO: (21)] | 0.547 nM |
| B1 | 0.0171 nM |
| HSQGTFTSDLSKQMDSRRAQDFIEWLKNGGPSSGAPPPS-NH2 [SEQ ID NO: (9)] | 0.0264 nM |
| HSQGTFTSDLSKQMDKRRAQDFIEWLKNGGPSSGAPPPS-NH2 [SEQ ID NO: (19)] | 0.052 nM |
| B2 | 0.168 nM |

Molecular target: human GLP-1 receptor (human, UniProt P43220 24-463)
Experiment: cell-based or functional assay

| Binder | EC50 hGLP-1R (cAMP formation) |
| --- | --- |
| HSQGTFTSDLSKQMDSRAAQLFIEWLKNGGPSSGAPPPS-NH2 [SEQ ID NO: (22)] | 0.0008 nM |
| HSQGTFTSDLSKQMDSRRAQDFIEWLKNGGPSSGAPPPK(Palmitoyl)-NH2 [SEQ ID NO: (21)] | 0.0782 nM |
| B1 | 0.0108 nM |
| HSQGTFTSDLSKQMDSRRAQDFIEWLKNGGPSSGAPPPS-NH2 [SEQ ID NO: (9)] | 0.0222 nM |
| HSQGTFTSDLSKQMDKRRAQDFIEWLKNGGPSSGAPPPS-NH2 [SEQ ID NO: (19)] | 0.017 nM |
| B2 | 0.264 nM |
